Patent US20160185837A1 (AstraZeneca / MedImmune, published 2016)
Residue numbers refer to the chain shown, from its start.

B1: IP253 (Fc fusion)
chain: YSEGTFTSDYSKLLDEEAVRLFIEWLLAGAPPGGSGSTASSGSGSATGGGGAATHTCPPCPAPEF
B2: IP243 (Fc fusion)
chain: YSEGTFTSDYSKLLEEEAQRLFIEWLVKGPAAAGGSGSTASSGSGSATGGGGAATHTCPPCPAPEF
B3: IP212 (Fc fusion)
chain: B2 chain with Q19V, L21E, E24A
B4: IP200 (Fc fusion)
chain: B2 chain with E3Q, L13I, Q19V
B5: IP258 (Fc fusion)
chain: YSEGTFTSDYSKLLDEEAVRLFIEWLVKGPGGGGGSGGGGSGGGGSGGGGSATHTCPPCPAPEF
B6: IP262 (Fc fusion)
chain: B5 chain with D15E, V27L
B7: IP260 (Fc fusion)
chain: B5 chain with D15E, R20Q
B8: IP259 (Fc fusion)
chain: B5 chain with D15E, E16K
B9: IP264 (Fc fusion)
chain: B5 chain with D15E, P30K
B10: IP261 (Fc fusion)
chain: B5 chain with D15E, I23V
B11: IP263 (Fc fusion)
chain: B5 chain with D15E, G29Q
B12: IP267 (Fc fusion)
chain: YSEGTFTSDYSKLLEEEHVRLFIEWLVKGPGGGGGSGGGGSGGGGSGGGGSATHTCPPC
B13: IP268 (Fc fusion)
chain: B12 chain with H18A
B14: IP201 (Fc fusion)
chain: YSEGTFTSDYSKLLEEEAVRLFIEWLLAGPSSGAPPPSAAAGGSGSTASSGSGSATGGGGAATHTCPPCPAPEF
B15: IP131 (Fc fusion)
chain: YSEGTFTSDYSKLLEEEAVRLFIEWLLAGGGGGGSGGGGSGGGGSGGGGSATHTCPPCPAPEF
B16: IP266 (Fc fusion)
chain: B15 chain with G30A, G31P, G32P

Legend:
Experiment in all cases: cell-based or functional assay
human glucagon receptor = human glucagon receptor (human, UniProt P47871 26-477)
human GLP-1 receptor = human GLP-1 receptor (human, UniProt P43220 24-463)
human GIP receptor = target: T1, human GIP receptor (human, UniProt P48546 22-466)
T1 sequence (looked up): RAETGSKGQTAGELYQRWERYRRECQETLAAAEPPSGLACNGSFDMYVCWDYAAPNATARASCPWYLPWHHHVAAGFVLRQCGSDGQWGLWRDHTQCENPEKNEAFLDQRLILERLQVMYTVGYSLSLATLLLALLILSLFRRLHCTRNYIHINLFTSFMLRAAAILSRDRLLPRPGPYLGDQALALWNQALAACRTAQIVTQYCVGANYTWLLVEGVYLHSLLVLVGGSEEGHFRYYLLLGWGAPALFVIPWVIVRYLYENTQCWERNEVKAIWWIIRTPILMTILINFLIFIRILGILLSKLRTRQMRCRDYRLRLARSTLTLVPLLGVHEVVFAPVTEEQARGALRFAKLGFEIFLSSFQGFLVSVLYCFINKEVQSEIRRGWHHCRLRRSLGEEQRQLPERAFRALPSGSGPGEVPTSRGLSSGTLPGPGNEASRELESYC

rat GIP receptor = target: T2, rat GIP receptor (rat, UniProt P43219 19-455)
T2 sequence (looked up): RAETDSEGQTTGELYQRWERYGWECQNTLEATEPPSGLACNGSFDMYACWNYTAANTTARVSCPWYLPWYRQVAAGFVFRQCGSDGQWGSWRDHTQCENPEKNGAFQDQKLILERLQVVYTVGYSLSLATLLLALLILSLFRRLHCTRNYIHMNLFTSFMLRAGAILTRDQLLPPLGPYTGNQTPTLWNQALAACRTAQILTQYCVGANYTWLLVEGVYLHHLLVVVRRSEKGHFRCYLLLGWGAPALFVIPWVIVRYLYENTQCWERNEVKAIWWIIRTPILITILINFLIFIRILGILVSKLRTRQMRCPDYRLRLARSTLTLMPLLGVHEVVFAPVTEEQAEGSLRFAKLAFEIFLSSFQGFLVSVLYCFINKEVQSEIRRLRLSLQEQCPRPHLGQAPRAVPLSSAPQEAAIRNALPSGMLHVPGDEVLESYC

mouse GIP receptor = target: T3, mouse GIP receptor (mouse, UniProt Q0P543 19-460)
T3 sequence (looked up): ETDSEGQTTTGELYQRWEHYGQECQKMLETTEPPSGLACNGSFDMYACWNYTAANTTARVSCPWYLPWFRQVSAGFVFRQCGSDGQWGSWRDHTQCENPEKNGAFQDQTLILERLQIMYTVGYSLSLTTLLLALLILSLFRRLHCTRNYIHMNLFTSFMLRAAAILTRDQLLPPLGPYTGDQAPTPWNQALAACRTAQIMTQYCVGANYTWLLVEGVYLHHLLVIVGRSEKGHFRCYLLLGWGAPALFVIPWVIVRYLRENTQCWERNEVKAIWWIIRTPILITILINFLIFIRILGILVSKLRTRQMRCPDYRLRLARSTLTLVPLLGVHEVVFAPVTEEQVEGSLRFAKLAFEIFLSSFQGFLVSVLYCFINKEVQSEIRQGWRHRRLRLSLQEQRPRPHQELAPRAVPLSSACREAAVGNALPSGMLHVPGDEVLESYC

mouse GLP-1 receptor = target: T4, mouse GLP-1 receptor (mouse, UniProt O35659 22-463)
T4 sequence (looked up): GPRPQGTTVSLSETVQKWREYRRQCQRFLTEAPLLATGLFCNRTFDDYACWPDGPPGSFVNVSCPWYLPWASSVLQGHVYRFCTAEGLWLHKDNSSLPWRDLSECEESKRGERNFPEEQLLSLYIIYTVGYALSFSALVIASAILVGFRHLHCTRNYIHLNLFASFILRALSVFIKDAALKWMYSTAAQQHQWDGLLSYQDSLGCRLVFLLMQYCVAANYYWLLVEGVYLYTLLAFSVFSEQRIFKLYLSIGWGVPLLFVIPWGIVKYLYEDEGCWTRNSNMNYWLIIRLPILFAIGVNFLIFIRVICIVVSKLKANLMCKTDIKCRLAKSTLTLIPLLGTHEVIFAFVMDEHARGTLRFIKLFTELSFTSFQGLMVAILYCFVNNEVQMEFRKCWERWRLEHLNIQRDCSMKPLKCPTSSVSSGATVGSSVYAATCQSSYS

rat GLP-1 receptor = target: T5, rat GLP-1 receptor (rat, UniProt P32301 22-463)
T5 sequence (looked up): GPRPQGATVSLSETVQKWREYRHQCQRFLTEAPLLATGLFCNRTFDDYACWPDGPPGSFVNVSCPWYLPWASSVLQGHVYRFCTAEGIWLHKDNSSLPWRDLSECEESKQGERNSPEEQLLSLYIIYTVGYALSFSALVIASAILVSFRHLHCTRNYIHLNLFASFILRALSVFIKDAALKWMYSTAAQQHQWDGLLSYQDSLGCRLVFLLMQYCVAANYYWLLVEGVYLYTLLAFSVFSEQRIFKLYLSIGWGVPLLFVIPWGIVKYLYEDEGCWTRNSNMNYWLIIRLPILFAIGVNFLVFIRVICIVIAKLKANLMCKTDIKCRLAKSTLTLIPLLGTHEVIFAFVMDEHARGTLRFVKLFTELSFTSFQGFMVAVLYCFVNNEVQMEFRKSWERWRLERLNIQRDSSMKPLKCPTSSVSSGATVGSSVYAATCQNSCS

Row | Binder | cAMP EC50 (human glucagon receptor) [nM] | cAMP EC50 (human GLP-1 receptor) [nM] | cAMP EC50 (human GIP receptor) [nM] | cAMP EC50 (rat GIP receptor) [nM] | cAMP EC50 (mouse GIP receptor) [nM] | cAMP EC50 (mouse GLP-1 receptor) [nM] | cAMP EC50 (rat GLP-1 receptor) [nM] | cAMP EC50, Batch 2 (human glucagon receptor) [nM] | cAMP EC50, Batch 3 (human glucagon receptor) [nM] | cAMP EC50, Batch 2 (human GLP-1 receptor) [nM] | cAMP EC50, Batch 3 (human GLP-1 receptor) [nM] | cAMP EC50, Batch 2 (human GIP receptor) [nM] | cAMP EC50, Batch 3 (human GIP receptor) [nM] | cAMP EC50, Batch 2 (rat GIP receptor) [nM] | cAMP EC50, Batch 2 (mouse GIP receptor) [nM] | cAMP EC50, Batch 2 (mouse GLP-1 receptor) [nM] | cAMP EC50, Batch 2 (rat GLP-1 receptor) [nM] | cAMP EC50, hGIPr (C3) line (human GIP receptor) [nM]
1 | B1 | 78 | 0.26 | 0.0093 | 0.024 | 0.61 | 3.8 | 0.21 |  |  |  |  |  |  |  |  |  |  | 
2 | B2 | > 2100 | 0.25 | 0.01 | 0.091 | 32 | 0.36 | 0.024 | 1400 | 1400 | 0.21 | 0.17 | 0.0069 | 0.0072 |  |  |  |  | 
3 | B3 | > 4000 | 0.087 | 0.0081 | 0.12 | 190 | 0.35 | 0.034 |  |  |  |  |  |  |  |  |  |  | 
4 | B4 | 0.11 | 0.12 | 0.018 |  |  |  |  | 0.083 |  | 0.077 |  | 0.012 |  | 0.25 | 160 | 0.34 | 0.028 | 
5 | B5 | > 19000 | 0.42 | 0.039 | 1.5 | 870 | 2.3 | 0.12 |  |  |  |  |  |  |  |  |  |  | 
6 | B6 | 63 | 0.21 | 0.01 | 0.019 | 3 | 0.53 | 0.036 |  |  |  |  |  |  |  |  |  |  | 
7 | B7 | > 16000 | 0.91 | 0.033 | 0.45 | 2400 | 5.3 | 0.25 |  |  |  |  |  |  |  |  |  |  | 
8 | B8 | > 480 | 0.1 | 0.027 | 0.033 | 12 | 0.31 | 0.029 |  |  |  |  |  |  |  |  |  |  | 
9 | B9 | > 9800 | 0.1 | 0.017 | 0.094 | 97 | 0.3 | 0.026 |  |  |  |  |  |  |  |  |  |  | 
10 | B10 | > 2400 | 0.14 | 0.03 | 0.27 | 230 | 0.34 | 0.028 |  |  |  |  |  |  |  |  |  |  | 
11 | B11 | > 18000 | 0.14 | 0.027 | 1.1 | 7000 | 0.96 | 0.042 |  |  |  |  |  |  |  |  |  |  | 
12 | B12 | 5800 | 1.5 | 0.12 | 0.81 | > 278 | 10 | 0.3 |  |  |  |  |  |  |  |  |  |  | 
13 | B13 | 2900 | 0.12 | 0.01 | 0.15 | 210 | 0.28 | 0.026 |  |  |  |  |  |  |  |  |  |  | 3.8
14 | B14 | 3.9 | 0.2 | 0.011 | 0.23 | 4.3 | 0.65 | 0.098 | 11 |  | 0.56 |  | 0.034 |  | 0.019 | 1.6 | 0.41 | 0.028 | 
15 | B15 | 23 | 0.1 | 0.0091 | 0.23 | 5.1 | 1 | 0.1 |  |  |  |  |  |  |  |  |  |  | 
16 | B16 | 16 | 0.15 | 0.012 | 0.038 | 0.3 | 0.76 | 0.3 |  |  |  |  |  |  |  |  |  |  | 
